# B1: RIPK4 (parent)
# chain: VIDLFDEQGLSALHLAAQGRHAQT
# B2: SLC35F2 (parent)
# chain: SFMPLVIKVTSATSVNLGILTADL
# Variants of: B1
# Test: protein stability index of a GFP-peptide fusion (GPS, HEK-293T) (PSI 1-6); higher = more stable
# Conditions: c terminus: a fixed tail appended
# 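Further: lentivirally expressed fusions sorted by FACS into six bins by GFP to DsRed ratio, PSI derived from sequencing read proportions per bin multiplied by bin number.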
row,Variant,protein stability index
1,VIDLFDEQGLSALHLAAQGRIAQT,2.28
2,VIDLFDEQGLSALHLAAQGRWAQT,1.9
3,VIDLFDEQGLSALHLAAQGRPAQT,3.01
4,VIDLFDEQGLSALHLAAQGRGAQT,2.86
5,VIDLFDEQGLSALHLAAQGRTAQT,3.07
6,VIDLFDEQGLSALHLAAQGRCAQT,2.89
7,VIDLFDEQGLSALHLAAQGREAQT,3.32
8,VIDLFDEQGLSALHLAAQGRLAQT,2.66
9,VIDLFDEQGLSALHLAAQGRSAQT,2.76
10,VIDLFDEQGLSALHLAAQGRDAQT,3.18
11,VIDLFDEQGLSALHLAAQGRKAQT,3.41
12,VIDLFDEQGLSALHLAAQGRAAQT,2.41
13,VIDLFDEQGLSALHLAAQGRRAQT,2.24
14,VIDLFDEQGLSALHLAAQGRVAQT,2.72
15,VIDLFDEQGLSALHLAAQGRQAQT,3.23
16,VIDLFDEQGLSALHLAAQGRFAQT,2.22
17,VIDLFDEQGLSALHLAAQGRYAQT,2.47
18,VIDLFDEQGLSALHLAAQGRMAQT,2.56
19,VIDLFDEQGLSALHLAAQGRNAQT,3.06
20,VIDLFDEQGLSALHLAAQWRHAQT,1.99
21,VIDLFDEQGLSALHLAAQERHAQT,3.37
22,VIDLFDEQGLSALHLAAQVRHAQT,1.71
23,VIDLFDEQGLSALHLAAQQRHAQT,3.07

row,Variant,protein stability index
1,VIDLFDEQGLSALHLAAQRRHAQT,2.44
2,VIDLFDEQGLSALHLAAQKRHAQT,3.13
3,VIDLFDEQGLSALHLAAQMRHAQT,1.64
4,VIDLFDEQGLSALHLAAQFRHAQT,1.91
5,VIDLFDEQGLSALHLAAQLRHAQT,1.63
6,VIDLFDEQGLSALHLAAQNRHAQT,3.03
7,VIDLFDEQGLSALHLAAQYRHAQT,2.66
8,VIDLFDEQGLSALHLAAQIRHAQT,1.42
9,VIDLFDEQGLSALHLAAQDRHAQT,3.55
10,VIDLFDEQGLSALHLAAQCRHAQT,2.25
11,VIDLFDEQGLSALHLAAQARHAQT,2.57
12,VIDLFDEQGLSALHLAAQTRHAQT,2.37
13,VIDLFDEQGLSALHLAAQPRHAQT,2.76
14,VIDLFDEQGLSALHLAAQHRHAQT,2.59
15,VIDLFDEQGLSALHLAAQSRHAQT,2.99
16,VIDLFDEQGLSALHLAAQGTHAQT,3.14
17,VIDLFDEQGLSALHLAAQGKHAQT,3.53
18,VIDLFDEQGLSALHLAAQGCHAQT,2.6
19,VIDLFDEQGLSALHLAAQGAHAQT,2.66
20,VIDLFDEQGLSALHLAAQGMHAQT,2.58
21,VIDLFDEQGLSALHLAAQGGHAQT,2.94
22,VIDLFDEQGLSALHLAAQGNHAQT,3.02
23,VIDLFDEQGLSALHLAAQGQHAQT,3.29

row,Variant,protein stability index
1,VIDLFDEQGLSALHLAAQGIHAQT,2.46
2,VIDLFDEQGLSALHLAAQGLHAQT,2.34
3,VIDLFDEQGLSALHLAAQGSHAQT,3.26
4,VIDLFDEQGLSALHLAAQGVHAQT,2.54
5,VIDLFDEQGLSALHLAAQGPHAQT,2.66
6,VIDLFDEQGLSALHLAAQGFHAQT,2.38
7,VIDLFDEQGLSALHLAAQGWHAQT,2.02
8,VIDLFDEQGLSALHLAAQGYHAQT,2.06
9,VIDLFDEQGLSALHLAAQGHHAQT,2.8
10,VIDLFDEQGLSALHLAAQGEHAQT,3.7
11,VIDLFDEQGLSALHLAAQGDHAQT,3.82
12,VIDLFDEQGLSALHLAAQGRHAIT,2.16
13,VIDLFDEQGLSALHLAAQGRHAHT,2.49
14,VIDLFDEQGLSALHLAAQGRHAET,3.48
15,VIDLFDEQGLSALHLAAQGRHAMT,1.84
16,VIDLFDEQGLSALHLAAQGRHAST,2.6
17,VIDLFDEQGLSALHLAAQGRHADT,3.69
18,VIDLFDEQGLSALHLAAQGRHAWT,1.93
19,VIDLFDEQGLSALHLAAQGRHACT,2.59
20,VIDLFDEQGLSALHLAAQGRHAVT,2.53
21,VIDLFDEQGLSALHLAAQGRHAYT,2.06
22,VIDLFDEQGLSALHLAAQGRHAFT,1.76
23,VIDLFDEQGLSALHLAAQGRHAPT,2.66

row,Variant,protein stability index
1,VIDLFDEQGLSALHLAAQGRHAKT,3.17
2,VIDLFDEQGLSALHLAAQGRHANT,2.84
3,VIDLFDEQGLSALHLAAQGRHAGT,2.8
4,VIDLFDEQGLSALHLAAQGRHATT,2.72
5,VIDLFDEQGLSALHLAAQGRHART,3.49
6,VIDLFDEQGLSALHLAAQGRHAAT,2.67
7,VIDLFDEQGLSALHLAAQGRHALT,2.52
8,VIDLFDEQGLSALHLAAQGRHNQT,3.09
9,VIDLFDEQGLSALHLAAQGRHPQT,2.79
10,VIDLFDEQGLSALHLAAQGRHWQT,1.57
11,VIDLFDEQGLSALHLAAQGRHTQT,3.03
12,VIDLFDEQGLSALHLAAQGRHDQT,3.03
13,VIDLFDEQGLSALHLAAQGRHMQT,2.4
14,VIDLFDEQGLSALHLAAQGRHSQT,2.91
15,VIDLFDEQGLSALHLAAQGRHVQT,2.42
16,VIDLFDEQGLSALHLAAQGRHLQT,2.1
17,VIDLFDEQGLSALHLAAQGRHRQT,3.13
18,VIDLFDEQGLSALHLAAQGRHIQT,2.14
19,VIDLFDEQGLSALHLAAQGRHHQT,2.87
20,VIDLFDEQGLSALHLAAQGRHFQT,2.19
21,VIDLFDEQGLSALHLAAQGRHKQT,3.17
22,VIDLFDEQGLSALHLAAQGRHGQT,2.73
23,VIDLFDEQGLSALHLAAQGRHQQT,3.15

row,Variant,protein stability index
1,VIDLFDEQGLSALHLAAQGRHEQT,3.61
2,VIDLFDEQGLSALHLAAQGRHYQT,2.23
3,VIDLFDEQGLSALHLAAQGRHCQT,2.32
4,VIDLFDEQGLSALHLAARGRHAQT,3.06
5,VIDLFDEQGLSALHLAASGRHAQT,2.64
6,VIDLFDEQGLSALHLAALGRHAQT,1.85
7,VIDLFDEQGLSALHLAAVGRHAQT,2.3
8,VIDLFDEQGLSALHLAAAGRHAQT,2.27
9,VIDLFDEQGLSALHLAAIGRHAQT,2.51
10,VIDLFDEQGLSALHLAAGGRHAQT,2.9
11,VIDLFDEQGLSALHLAAWGRHAQT,2.88
12,VIDLFDEQGLSALHLAATGRHAQT,2.36
13,VIDLFDEQGLSALHLAAHGRHAQT,2.18
14,VIDLFDEQGLSALHLAAPGRHAQT,2.82
15,VIDLFDEQGLSALHLAAYGRHAQT,2.22
16,VIDLFDEQGLSALHLAANGRHAQT,2.88
17,VIDLFDEQGLSALHLAAKGRHAQT,2.17
18,VIDLFDEQGLSALHLAACGRHAQT,2.3
19,VIDLFDEQGLSALHLAAEGRHAQT,3.19
20,VIDLFDEQGLSALHLAADGRHAQT,3.42
21,VIDLFDEQGLSALHLAAFGRHAQT,2.01
22,VIDLFDEQGLSALHLAAMGRHAQT,2.15
23,VIDLFDEQGLSALHLAAQGRHAQR,3.38

row,Variant,protein stability index
1,VIDLFDEQGLSALHLAAQGRHAQD,3.76
2,VIDLFDEQGLSALHLAAQGRHAQE,4
3,VIDLFDEQGLSALHLAAQGRHAQQ,2.51
4,VIDLFDEQGLSALHLAAQGRHAQN,2.92
5,VIDLFDEQGLSALHLAAQGRHAQI,2.47
6,VIDLFDEQGLSALHLAAQGRHAQP,2.41
7,VIDLFDEQGLSALHLAAQGRHAQW,1.86
8,VIDLFDEQGLSALHLAAQGRHAQC,2.57
9,VIDLFDEQGLSALHLAAQGRHAQG,3.15
10,VIDLFDEQGLSALHLAAQGRHAQF,1.86
11,VIDLFDEQGLSALHLAAQGRHAQM,2.63
12,VIDLFDEQGLSALHLAAQGRHAQH,2.38
13,VIDLFDEQGLSALHLAAQGRHAQV,2.69
14,VIDLFDEQGLSALHLAAQGRHAQA,2.5
15,VIDLFDEQGLSALHLAAQGRHAQL,2.09
16,VIDLFDEQGLSALHLAAQGRHAQY,1.91
17,VIDLFDEQGLSALHLAAQGRHAQS,2.51
18,VIDLFDEQGLSALHLAAQGRHAQK,3.13
19,VIDLFDEQGLSALHLATQGRHAQT,2.7
20,VIDLFDEQGLSALHLAVQGRHAQT,2.92
21,VIDLFDEQGLSALHLAYQGRHAQT,2.49
22,VIDLFDEQGLSALHLAWQGRHAQT,1.75

# Variants of: B2
# Test: as above
# Conditions: c terminus: a fixed tail appended
row,Variant,protein stability index
1,SAMPLVIKVTSATSVNLGILTADL,2.38
2,SQMPLVIKVTSATSVNLGILTADL,3.56
3,SLMPLVIKVTSATSVNLGILTADL,2.42
4,SGMPLVIKVTSATSVNLGILTADL,3.11
5,SIMPLVIKVTSATSVNLGILTADL,3.41
6,STMPLVIKVTSATSVNLGILTADL,2.87
7,SPMPLVIKVTSATSVNLGILTADL,2.47
8,SCMPLVIKVTSATSVNLGILTADL,2.58
9,SVMPLVIKVTSATSVNLGILTADL,2.68
10,SNMPLVIKVTSATSVNLGILTADL,2.48
11,SMMPLVIKVTSATSVNLGILTADL,2.47
12,SEMPLVIKVTSATSVNLGILTADL,2.65
13,SSMPLVIKVTSATSVNLGILTADL,2.92
14,SHMPLVIKVTSATSVNLGILTADL,1.71
15,SRMPLVIKVTSATSVNLGILTADL,2.01
16,SDMPLVIKVTSATSVNLGILTADL,2.12
17,SKMPLVIKVTSATSVNLGILTADL,3
18,SFMCLVIKVTSATSVNLGILTADL,3.66
19,SFMALVIKVTSATSVNLGILTADL,2.68
20,SFMDLVIKVTSATSVNLGILTADL,1.64
21,LFMPLVIKVTSATSVNLGILTADL,3.05
22,RFMPLVIKVTSATSVNLGILTADL,2.98
23,EFMPLVIKVTSATSVNLGILTADL,4.28
24,YFMPLVIKVTSATSVNLGILTADL,3.38
25,KFMPLVIKVTSATSVNLGILTADL,5.06
26,WFMPLVIKVTSATSVNLGILTADL,3.82

row,Variant,protein stability index
1,NFMPLVIKVTSATSVNLGILTADL,3.55
2,IFMPLVIKVTSATSVNLGILTADL,3.16
3,MFMPLVIKVTSATSVNLGILTADL,2.14
4,AFMPLVIKVTSATSVNLGILTADL,3.22
5,HFMPLVIKVTSATSVNLGILTADL,2.96
6,CFMPLVIKVTSATSVNLGILTADL,3.77
7,TFMPLVIKVTSATSVNLGILTADL,3.15
8,PFMPLVIKVTSATSVNLGILTADL,3.06
9,FFMPLVIKVTSATSVNLGILTADL,3.08
10,GFMPLVIKVTSATSVNLGILTADL,2.77
11,SFGPLVIKVTSATSVNLGILTADL,3.41
12,SFCPLVIKVTSATSVNLGILTADL,1.59
13,SFRPLVIKVTSATSVNLGILTADL,1.58
14,SFSPLVIKVTSATSVNLGILTADL,3.76
15,SFTPLVIKVTSATSVNLGILTADL,2.79
16,SFYPLVIKVTSATSVNLGILTADL,1.96
17,SFDPLVIKVTSATSVNLGILTADL,2.11
18,SFWPLVIKVTSATSVNLGILTADL,4.7
19,SFVPLVIKVTSATSVNLGILTADL,2.06
20,SFIPLVIKVTSATSVNLGILTADL,2.15
21,SFKPLVIKVTSATSVNLGILTADL,2.4
22,SFPPLVIKVTSATSVNLGILTADL,3.32
23,SFQPLVIKVTSATSVNLGILTADL,2.13
24,SFNPLVIKVTSATSVNLGILTADL,3.15
25,SFLPLVIKVTSATSVNLGILTADL,2.73

# From the supplement of paper PMC10567573
